The values below are quoted from earlier work in paper PMC2647589.

The target of this data set is MeTRH (UniProt P20396).
Chain of UniProt P20396 (P20396 whole entry, looked up): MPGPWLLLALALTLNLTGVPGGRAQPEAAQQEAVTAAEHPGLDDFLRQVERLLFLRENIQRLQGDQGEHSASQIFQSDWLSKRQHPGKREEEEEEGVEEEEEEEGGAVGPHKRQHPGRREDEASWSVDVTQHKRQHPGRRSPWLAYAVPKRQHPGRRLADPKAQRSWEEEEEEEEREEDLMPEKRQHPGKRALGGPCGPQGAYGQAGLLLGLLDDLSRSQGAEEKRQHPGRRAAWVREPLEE

As usually defined, the Kd is the concentration at which binding is half-saturated. TRH receptor (from UniProt P21761): the Kd is 2 nM.
